Consider one substance from patent publication US20180209962A1, “SCREENING METHOD USING INDUCED NEURONS” (KYOTO UNIVERSITY, priority 2014, published 2018).

The target of experiment [1] is tau oligomer secreted into the culture supernatant by human tauopathy iNs (FTDP-17 patient, MAPT intron 10+14 C>T) (human) (UniProt P10636). The experiment in a line: cell-based or functional assay.
Experiment [2] has the same target. The experiment in a line: immunodepletion of human tauopathy iN culture supernatant with antibody-bound beads; tau oligomer measured by ELISA. On the technique in general: ELISA stands for enzyme-linked immunosorbent assay.

tau oligomer secreted into the culture supernatant by human tauopathy iNs (FTDP-17 patient, MAPT intron 10+14 C>T) (human), sequence (P10636 other isoform, or with tags, fused parts or gaps limits assumed): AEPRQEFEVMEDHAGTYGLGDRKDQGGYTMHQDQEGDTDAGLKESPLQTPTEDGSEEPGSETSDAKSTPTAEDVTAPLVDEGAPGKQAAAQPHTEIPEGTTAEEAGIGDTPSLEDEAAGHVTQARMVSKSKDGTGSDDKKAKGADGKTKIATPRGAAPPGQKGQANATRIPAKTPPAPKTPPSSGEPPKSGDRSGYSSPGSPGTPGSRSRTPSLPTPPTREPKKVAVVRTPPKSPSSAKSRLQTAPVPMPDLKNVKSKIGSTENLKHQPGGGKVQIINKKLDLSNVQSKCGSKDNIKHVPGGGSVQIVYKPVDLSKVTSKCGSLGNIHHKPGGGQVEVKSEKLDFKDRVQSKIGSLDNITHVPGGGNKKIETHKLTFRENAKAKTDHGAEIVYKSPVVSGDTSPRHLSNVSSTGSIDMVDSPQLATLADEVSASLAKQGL
tau oligometric complex 1 antibody (TOC1 antibody), sequence (heavy): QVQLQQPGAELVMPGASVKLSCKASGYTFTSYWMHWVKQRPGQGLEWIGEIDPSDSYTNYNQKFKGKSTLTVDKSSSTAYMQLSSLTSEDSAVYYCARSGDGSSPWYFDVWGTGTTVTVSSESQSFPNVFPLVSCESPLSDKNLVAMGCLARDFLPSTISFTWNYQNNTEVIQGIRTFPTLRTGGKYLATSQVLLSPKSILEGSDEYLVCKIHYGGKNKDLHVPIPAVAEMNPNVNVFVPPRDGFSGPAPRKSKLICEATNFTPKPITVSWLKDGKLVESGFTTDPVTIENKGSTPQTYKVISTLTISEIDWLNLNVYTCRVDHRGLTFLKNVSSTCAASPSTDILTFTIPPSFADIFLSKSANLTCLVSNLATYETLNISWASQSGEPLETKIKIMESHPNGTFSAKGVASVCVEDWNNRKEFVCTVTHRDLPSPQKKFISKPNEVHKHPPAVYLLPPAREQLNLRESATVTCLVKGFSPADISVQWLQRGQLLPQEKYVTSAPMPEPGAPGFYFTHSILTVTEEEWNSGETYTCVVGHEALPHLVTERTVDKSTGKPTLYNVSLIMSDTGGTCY
tau oligometric complex 1 antibody (TOC1 antibody), sequence (light): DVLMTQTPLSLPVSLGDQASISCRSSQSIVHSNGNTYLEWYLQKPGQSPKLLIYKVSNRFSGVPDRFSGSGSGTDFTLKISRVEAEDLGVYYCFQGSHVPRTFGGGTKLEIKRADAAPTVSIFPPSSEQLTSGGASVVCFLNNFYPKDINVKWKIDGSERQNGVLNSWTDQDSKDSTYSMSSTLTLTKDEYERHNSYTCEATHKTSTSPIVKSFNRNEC

“tau oligometric complex 1 antibody (TOC1 antibody)”: the survival rate of human normal iNs two days after adding the immunodepleted culture supernatant in experiment [1] turned out to be 130%. For the same substance, the amount of tau oligomer left in the culture supernatant after immunodepletion in experiment [2] was 27%.
